According to the supplement of paper PMC10567573:
± gives the standard deviation.

Assay: protein stability index of a GFP-peptide fusion (GPS, HEK-293T) (PSI 1-6); higher = more stable
[1] = treatment: DMSO, c terminus: native
[2] = treatment: MLN4924 1 uM, 8 h, c terminus: native
[3] = treatment: DMSO, c terminus: a fixed tail appended
[4] = treatment: MLN4924 1 uM, 8 h, c terminus: a fixed tail appended
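Also: 24-mer peptide tiles fused after GFP, lentivirally expressed, FACS-sorted into six equal bins by GFP/DsRed ratio, decoded by Illumina sequencing, PSI is the read-weighted mean bin number.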

Row | Sequence | protein stability index [1] | protein stability index [2] | protein stability index [3] | protein stability index [4]
1 | NWVIPAISAVAVALMYRLYMAED [CYB5A] | 3.92 ± 0.12 | 4.02 ± 0.19 |  | 
2 | TKNKSKHALRKKQLKRQKRDYIHS [FAM9B] |  |  | 3.71 ± 0.1 | 3.76 ± 0.1
3 | KGHERTVQYLQHLGTENLHLIFSY [VPS39] |  |  | 2.39 ± 0.46 | 2.59 ± 0.67
4 | PVTPQVGEGRKSRKFSRLSCLRRR [SMG5] |  |  | 4.36 ± 0.068 | 4.34 ± 0.12
5 | ADQWKSSNKSLVEALGLEAEGAVP [RHOBTB1] |  |  | 5.1 ± 0.17 | 4.83 ± 0.22
6 | GRYPLIQTLRQELSLPYLPSGTPE [CHIT1] |  |  | 3.51 ± 0.26 | 3.47 ± 0.27
7 | RWALLSCRGKKPSRIYGQAMAIIN [KLHDC10] |  |  | 2.32 ± 0.55 | 2.18 ± 0.32
8 | ENILMCVDDAYVRRMAAEATEWQK [SRPK2] |  |  | 3.52 ± 0.26 | 3.55 ± 0.17
9 | RENMSDGDTSATESGDEVPVELYT [KMT2E] |  |  | 5.32 ± 0.21 | 5.21 ± 0.22
10 | RELLLDGGYLQRTTYDRRSSQERK [RSPH3] |  |  | 4.39 ± 0.28 | 4.8 ± 0.24
11 | DPAYIAVLVLIFNAAKTCPTMPAL [INTS4] |  |  | 3.12 ± 0.56 | 3.09 ± 0.47
12 | CEALEDSDGRQDSPAGELPKTVQQ [MATN2] |  |  | 5.55 ± 0.33 | 5.56 ± 0.17
13 | LQEQHLSSPQGVQLDIASQSLDQE [BCL2L13] |  |  | 5.38 ± 0.28 | 5.56 ± 0.21
14 | ADPMDWSPSNVQKWLLWTEHQYRL [SPDEF] |  |  | 2.47 ± 0.21 | 2.43 ± 0.35
15 | RFFASSSLHHTSECTQMDHLGCMH [ALDH8A1] |  |  | 2.87 ± 0.22 | 2.85 ± 0.32
16 | NILLKNLVTIARKASLWQFLSSEK [TRIM43] |  |  | 2.17 ± 0.42 | 2.13 ± 0.18
17 | ARKYFERLPGGGWTLRRTKELRKD [DYRK1B] |  |  | 3.66 ± 0.45 | 3.86 ± 0.44
18 | QYQANKVTHTLTMRQRISRVEESA [PPEF2] |  |  | 3.65 ± 0.16 | 3.77 ± 0.16
19 | AHHPLHPHLMQEHMGTNVIVANTM [HNF4A] |  |  | 3.2 ± 0.23 | 3.21 ± 0.17
20 | GCEHSCVSSEDSFVCQCFEGYILR [MATN2] |  |  | 3.12 ± 0.38 | 3.27 ± 0.53
21 | LRAQVPFEQILSLPELKANPFKER [CIB1] |  |  | 3.17 ± 0.29 | 3.1 ± 0.42
22 | VNRKSVKGNTALHDCAESGSLDIM [FEM1C] |  |  | 3.7 ± 0.28 | 3.46 ± 0.47
23 | APPLQAETPGSAVDYPLHDLVLHT [TNXB] |  |  | 4.16 ± 0.23 | 4.17 ± 0.2

Row | Sequence | protein stability index [1] | protein stability index [2] | protein stability index [3] | protein stability index [4]
24 | SNLTSNLASLVSQGMIQLALSGAS [RETREG3] |  |  | 3.05 ± 0.12 | 3.15 ± 0.24
25 | QQMVASGTGAVVTSLFMTPLDVVK [SLC25A39] |  |  | 2.8 ± 0.17 | 2.98 ± 0.21
26 | ELTFSYIAFDGVVGSGGRRDSTAR [RTN2] |  |  | 3.17 ± 0.079 | 3.15 ± 0.28
27 | KFPPEEELQREWLGNREALIQFLE [CPN1] |  |  | 3.69 ± 0.18 | 3.8 ± 0.18
28 | QALEKIFLQKVAQMPQEEVELLPP [BRD3] |  |  | 2.63 ± 0.26 | 2.83 ± 0.4
29 | KVPRPDALDNESWGFVHPRLLSVP [RETREG3] |  |  | 2.91 ± 0.13 | 2.74 ± 0.081
30 | ERYRHEIAHDGQRIYVLGGGTSWT [KLHDC10] |  |  | 2.83 ± 0.48 | 2.79 ± 0.23
31 | YAAIVAVVAVHVVLALFVYVAWNE [VMA21] |  |  | 2.08 ± 0.31 | 2.1 ± 0.11
32 | WVYSGRRGVHCWVCDESVRKLSSA [PRIM1] |  |  | 2.51 ± 0.84 | 3.04 ± 0.39
33 | HDSANCELPLLTPCSKAVMSQALK [ETS2] |  |  | 3.34 ± 0.28 | 3.45 ± 0.24
34 | SSSPPGTPSPADAKAPPTACYAGA [CEBPB] |  |  | 5.14 ± 0.14 | 4.91 ± 0.29
35 | DNSDYDYSALSCTSDASFHPAFLP [KCNG1] |  |  | 3.59 ± 0.26 | 3.46 ± 0.32
36 | ADGFGDNPFYHCLVAEILPAPGKL [SAT2] |  |  | 2.27 ± 0.14 | 2.37 ± 0.42
37 | KYDYLMTLHGVVNESTVCLMSYER [TENT5D] |  |  | 2.38 ± 0.34 | 2.36 ± 0.22
38 | LGLAGRCLTLTPRPATEAELLTCH [HDAC6] |  |  | 2.86 ± 0.26 | 2.7 ± 0.4
39 | QRRRRVENAGGSPSPEPAGRRAAL [RSAD1] |  |  | 5.11 ± 0.4 | 5.15 ± 0.27
40 | NNKKWILSASKDRTMRLWNIEEID [WDR88] |  |  | 2.66 ± 0.12 | 2.86 ± 0.44
41 | LYPALKGVNTVFHCASPPPSSNNK [NSDHL] |  |  | 3.47 ± 0.064 | 3.52 ± 0.16
42 | QSLPKASPVTTSPTAATTQNPVLS [LCOR] |  |  | 4.92 ± 0.19 | 4.85 ± 0.21
43 | FTDYGLAALAVNTSILSRLPPEAL [RNF208] |  |  | 2.29 ± 0.25 | 2.13 ± 0.31
44 | RRLIKRFSFKSKPKANGNPSPQL [C2CD2L] | 4.24 ± 0.3 | 4.38 ± 0.16 |  | 
45 | VDAAYANKVELQAKVESMDQEIKF [KRT71] |  |  | 4.88 ± 0.41 | 4.87 ± 0.21
46 | NKRKTYTESYIARPDGDCASSLNG [ZC2HC1A] |  |  | 4.18 ± 0.23 | 4.44 ± 0.3

Row | Sequence | protein stability index [1] | protein stability index [2] | protein stability index [3] | protein stability index [4]
47 | LCIHTGRELRCKVFPIKHYQDKIR [TRIB1] |  |  | 2.27 ± 0.52 | 2.18 ± 0.18
48 | SGLRMVPEHRAFGSPFGLEEPQWV [ZFYVE21] |  |  | 2.8 ± 0.14 | 2.93 ± 0.26
49 | ADRCSPKEDQAWDGASQDCPPLPA [FBXO34] |  |  | 5.27 ± 0.18 | 4.99 ± 0.14
50 | LLGLKAFLGLFFIVRFLESNWFVW [FADS1] |  |  | 2.9 ± 0.47 | 2.31 ± 0.43
51 | LCSVGASKAVFLWNMDKYTMIRKL [WSB1] |  |  | 2.34 ± 0.4 | 2.17 ± 0.31
52 | GGGGGGGGGGGGGGTSSNNSEEEE [ANKRD17] |  |  | 5.42 ± 0.23 | 5.41 ± 0.31
53 | PPPELMDVSLVGGPADCSPPHPAP [DYRK1B] |  |  | 5.08 ± 0.22 | 5.1 ± 0.11
54 | VTPKKSPPPKTNLTPGQSDSAKRE [FAN1] |  |  | 5.22 ± 0.33 | 5.35 ± 0.33
55 | SLEDLIFESLPENASHKLEVRLVP [ATE1] |  |  | 2.79 ± 0.3 | 2.98 ± 0.3
56 | ENFKGLAIPYLEHIIHVWEETGSR [VPS39] |  |  | 2.52 ± 0.32 | 2.48 ± 0.4
57 | SQNIAAETRAEDPPWFEGLESRFQ [DFFB] |  |  | 4.46 ± 0.13 | 4.49 ± 0.079
58 | RTPRLMPDKESMYYPRVQHYRELL [GDAP1] |  |  | 2.52 ± 0.17 | 2.61 ± 0.27
59 | QTFQWVKLPATMPEPVYFHCAAVT [KLHDC10] |  |  | 2.28 ± 0.36 | 2.33 ± 0.39
60 | SLKAICTEIANCSLKVKFFDLERE [PLD5] |  |  | 2.12 ± 0.17 | 2.26 ± 0.84
61 | GRHYWEVEVGDKTHWAVGVCRDSV [TRIM39] |  |  | 2.48 ± 0.41 | 2.42 ± 0.22
62 | MAGAIAQGLIRAGKVEAQHILASA [PYCR3] |  |  | 2.18 ± 0.18 | 2.31 ± 0.32
63 | MRGRIYLEPPTMRKKRLLDRKVLL [GOLPH3L] |  |  | 2.34 ± 0.27 | 2.47 ± 0.29
64 | ERPRMNANSLLASPTGLSPYLRFG [CRY1] |  |  | 2.89 ± 0.21 | 2.98 ± 0.22
65 | QEELQIQAAVAAGDVHTVRKMLEQ [ASB7] |  |  | 5 ± 0.39 | 4.73 ± 0.21
66 | LGVGLLTFASLETVGIYFGLVYRI [TMEM40] |  |  | 3.17 ± 0.25 | 3.29 ± 0.22
67 | FDGPEAWGVCEPQREEVEERMWAA [ZER1] |  |  | 3.43 ± 0.71 | 4 ± 0.53
68 | RYLEAEFKKGNRYIRCQKEVGKSF [SMG5] |  |  | 2.57 ± 0.71 | 2.29 ± 0.21
69 | EDQGGLEAVRQEMRRQEPLPPPPP [WAS] |  |  | 5.3 ± 0.15 | 5.42 ± 0.22

Row | Sequence | protein stability index [1] | protein stability index [2] | protein stability index [3] | protein stability index [4]
70 | PVVSMDLDPQPITDEEEGLIWVVG [PTPRD] |  |  | 3.96 ± 0.29 | 4.29 ± 0.48
71 | SDVLTISGTIMKIGIEAKNLASYD [MCOLN1] |  |  | 2.39 ± 0.24 | 2.5 ± 0.33
72 | DTTTPTTSAITASRSESPPPLSDP [BRD3] |  |  | 5.45 ± 0.42 | 5.57 ± 0.12
73 | ATLFFHYIKTPLFNPEVAKYLKVP [IQUB] |  |  | 2.93 ± 0.21 | 2.57 ± 0.66
74 | TNHIAPHARNGLSLKEEHRAYDLL [IKZF1] |  |  | 3.43 ± 0.28 | 3.64 ± 0.11
75 | AGTSSHGCWAWPLAGLSVGRSSLT [PXN] |  |  | 2.5 ± 0.26 | 2.61 ± 0.26
76 | EMRIPALNAYMKSLLSLPVWVLMD [NCF4] |  |  | 3.26 ± 0.95 | 2.92 ± 0.55
77 | ANGEVTYSFRKLPDTQLLKFQLNK [PCDHGA10] |  |  | 2.83 ± 0.33 | 2.85 ± 0.24
78 | PRPNRLFLRQLRASHLGNELEGTE [C2CD2L] |  |  | 3.92 ± 0.15 | 4.05 ± 0.26
79 | GDMNHEWIGNEWLPSLGLPQYRSY [PPFIA4] |  |  | 2.41 ± 0.73 | 2.8 ± 0.38
80 | EVMKCIVEVISDTLSKPSPMPVSQ [CHGA] |  |  | 2.55 ± 0.18 | 2.48 ± 0.4
81 | IKSHSSLPPNNSYADFERFSKVLE [DAPK3] |  |  | 2.81 ± 0.22 | 2.96 ± 0.39
82 | ITLDGGVLVHVQKWDGKSTTIKRK [FABP4] |  |  | 2.46 ± 0.38 | 3.06 ± 0.1
83 | EKEESRREAEKQNYLAEHCPPLHI [TNNI2] |  |  | 4.93 ± 0.17 | 4.94 ± 0.22
84 | EQKLRACLEGSINEHSAHCPHTPE [RPAIN] |  |  | 4.92 ± 0.28 | 4.99 ± 0.23
85 | LEDTCKTIEECCRKQKQELCEKFD [TRIM55] |  |  | 4.86 ± 0.094 | 4.74 ± 0.25
86 | SSEKKRQSSADGSQPPKKKPKTTN [RBBP5] |  |  | 5.24 ± 0.37 | 5.28 ± 0.3
87 | SGPEAARAGGWVSGEEFYMLTRRV [PKD2L1] |  |  | 2.69 ± 0.29 | 2.96 ± 0.49
88 | DGITNGASWYSLSKGMQDFNYLHT [CPN1] |  |  | 2.35 ± 0.13 | 2.43 ± 0.22
89 | LAICRPLTYSTRMSQTVQRMLVAA [OR3A1] |  |  | 2.49 ± 0.17 | 2.54 ± 0.14
